Laboratory results published in paper PMC6249866 (Molecular Biology of the Cell, 2018).

Molecular target: T1, Asl-A-His6 (WT; Asterless amino acids 1-374) (Drosophila, UniProt Q9VNE4 1-374)
T1 sequence (looked up): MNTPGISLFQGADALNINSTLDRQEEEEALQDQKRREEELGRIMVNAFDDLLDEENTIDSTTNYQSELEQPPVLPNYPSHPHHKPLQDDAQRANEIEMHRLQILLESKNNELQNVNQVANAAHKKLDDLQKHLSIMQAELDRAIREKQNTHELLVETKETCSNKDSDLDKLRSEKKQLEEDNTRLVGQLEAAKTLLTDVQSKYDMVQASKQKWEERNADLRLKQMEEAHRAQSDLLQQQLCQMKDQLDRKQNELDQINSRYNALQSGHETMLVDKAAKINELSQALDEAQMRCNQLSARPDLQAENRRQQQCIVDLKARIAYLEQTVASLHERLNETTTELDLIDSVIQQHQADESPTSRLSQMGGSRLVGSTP
Experiment: pull-down

binding result: binds
B1: GST-PB1-PB2 (Plk4 amino acids 382-602) (domain or fragment, Drosophila, UniProt O97143 382-602, looked up)
chain: DRISVPPLNTKRLLPTRYKTKNAIMSILRNGEVVLEFLKFRPTYNEDRINDICRISDDGQRIIIYQPDPGRGLPVREQPPDLQIPSGDCVYNYDNLPSKHWKKYIYGARFVGLVKSKTPKVTYFSTLGKCQLMETMTDFEIRFYSGAKLLKTPSEGLKVYDRNGMLLSDYSCSESRSLIEHGNECFTHCVNISNALEVAQTKDNSCFPVTIGRRPITDVQP
